US20250277026A1 (NOVAROCK BIOTHERAPEUTICS, published 2025)
Substitutions are numbered along the chain they refer to. Names and notes keep the numbering of the source.

B1: NR.N6.Ab1 (antibody, human IgG1, V domains shown)
VH: QVQLVQSGAEVKKPGASVKVSCKASGNTFTSYDINWVRQATGQGLEWMGWMNPNSGNTGYAQKFQGRVTMTRNTSISTAYMELSSLRSEDTAVYYCVYYNYVWGSFRFDDWGQGTLVTVSS
VL: DIQLTQSPSFLSASVGDRVTITCRASQGISSYLAWYQQKPGKAPKLLIYAASTLQSGVPSRFSGSGSGTEFTLAVSSLQPEDFATYYCQQLNSYPYTFGQGTKLEIK
notes: Human variable domains from Trianni mice; also called NR.NR6.Ab1
B2: NR.N6.Ab1 variant N73D (antibody, V domains shown)
VH: B1 VH with N73D
VL: B1 VL
notes: the LALA changes of the constant region are explained nowhere; also called NR.N6.Ab1N73D; NR.N6.Ab1 N73D
B3: NR.N6.Ab2 (antibody, V domains shown)
VH: QVQLVESGGGVVQPGRSLRLSCTASGFTFSHYGMHWVRQAPGKGLEWVSFLWFDGSKDNYADSVKGRFTISRDNSKNMLYLRMDSLRAEDTAVYYCARNGGLTIFDYWGQGTLVTVSS
VL: AIQLTQSPSSLSASVGDRVTITCRASQGINSWLAWYQQKPEKAPKSLIYAASSLQSGVPSRFSGSGSGTDFTLTISSLQPEDFATYYCQQYNFYPYTFGQGTKLEII
notes: hybridoma-purified antibody in the Claudin-3-CHO-K1, Claudin-4-CHO-K1 and MCF7 assays
B4: NR.N6.Ab3 (antibody, V domains shown)
VH: QVQLVESGGGVVQPGRSLRLSCAASGFTFSGYGMHWVRQAPGKGLEWVAAIWYDGSNKYYADSVKGRFTISSDNSKNTLYLQMKSLRAEDTAVYYCAREWYSSGWSMYDVFDIWGQGTMVTVSS
VL: QTVVTQEPSFSVSPGGTVTLTCGLSSGSVSTSYYPSWYQQTPGQAPRTLIYSTNTRSSGVPDRFSGSILGNKAALTITGAQADDESDYYCVLYMGSGIWVFGGGTKLTVL
B5: NR.N6.Ab4 (antibody, V domains shown)
VH: QVQLVESGGGVVQPGRSLRLSCAASGFIFSSYGMHWVRQAPGKGLEWVAVIWYDGSNKFYADSVKGRFTISRDNSRKTLYLQMNSLRAEDTAVYYCARDGRYFDWGGSYYYYYGMDVWGQGTTVTVSS
VL: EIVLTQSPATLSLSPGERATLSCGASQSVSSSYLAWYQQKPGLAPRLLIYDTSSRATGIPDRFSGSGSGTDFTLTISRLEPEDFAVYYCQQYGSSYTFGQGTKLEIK
B6: NR.N6.Ab5 (antibody, V domains shown)
VH: B5 VH with V11A, V50I, Y53F, S56R, F59N, R76K, Q82E, N84S
VL: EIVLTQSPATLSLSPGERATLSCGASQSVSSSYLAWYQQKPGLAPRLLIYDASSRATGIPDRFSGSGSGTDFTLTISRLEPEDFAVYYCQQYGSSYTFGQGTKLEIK
notes: LCDR 41, 45, 43); also called NR.4.N6.Ab5

How the values were obtained:
human Claudin-9 [1] = target: T1, human Claudin-9 (human, UniProt O95484 1-217); test: FACS dose response, Claudin-9-HEK293 cells
T1 construct: On transfected HEK293 cells; also called CLDN9
T1 sequence: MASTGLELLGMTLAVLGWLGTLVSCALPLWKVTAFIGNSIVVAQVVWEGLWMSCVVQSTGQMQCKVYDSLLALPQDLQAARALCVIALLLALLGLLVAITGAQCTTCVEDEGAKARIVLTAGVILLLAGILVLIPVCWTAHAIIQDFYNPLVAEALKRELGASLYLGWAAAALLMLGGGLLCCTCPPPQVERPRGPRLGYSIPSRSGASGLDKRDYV
Protocol: (§1) The binding specificity of the disclosed anti-Claudin-6 antibodies were further assessed for binding to Claudin-9 by FACS. Briefly, Claudin-9-HEK293 cells (GenScript, Item #U3288DL180_4) were incubated with recombinant Claudin-6 antibodies for 2 hours at 4° C. Cells were fixed with 2% PFA (Alfa Aesar, cat #: J61899) for 15 minutes at 4° C. and then washed. […] Flow cytometric analyses were performed on a flow cytometry instrument (Intellicyte, IQue plus, Sartorius).

human Claudin-6 [2] = target: T2, human Claudin-6 (human, UniProt P56747 1-220); test: cell-based or functional assay
T2 sequence: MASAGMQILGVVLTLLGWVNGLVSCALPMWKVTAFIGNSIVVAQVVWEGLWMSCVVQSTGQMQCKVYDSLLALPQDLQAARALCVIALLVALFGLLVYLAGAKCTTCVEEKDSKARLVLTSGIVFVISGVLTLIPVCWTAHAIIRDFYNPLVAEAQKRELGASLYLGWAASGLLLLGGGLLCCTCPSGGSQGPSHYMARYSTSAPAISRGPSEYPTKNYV

human Claudin-6 [3] = target: T2, human Claudin-6; test: cell-based or functional assay; remark: listed apart in the source
human Claudin-9 [4] = target: T1, human Claudin-9; test: FACS, Claudin-9-HEK293 cells, 5 µg/ml
Protocol: as §1

human Claudin-6 [5] = target: T2, human Claudin-6; test: cell-based or functional assay; remark: listed apart in the source
human Claudin-6 [6] = target: T2, human Claudin-6; test: FACS, OV90 cells (endogenous CLDN6)
Protocol: (§2) Cells were fixed with 2% PFA (Alfa Aesar, catalog number: J61899) for 15 minutes at 4° C. and then washed. […] Flow cytometric analyses were performed on a flow cytometry instrument (Intellicyte, IQue plus, Sartorius).

human Claudin-6 [7] = target: T2, human Claudin-6; test: cell-based or functional assay; remark: listed apart in the source
human Claudin-6 [8] = target: T2, human Claudin-6; test: FACS, NEC8 cells (endogenous CLDN6), recombinant antibody
human Claudin-4 [9] = target: T3, human Claudin-4 (human, UniProt O14493 1-209); test: FACS on Claudin-4-CHO-K1 cells, MFI
T3 construct: On transfected CHO-K1 cells, or endogenous on MCF7 cells; also called CLDN4
T3 sequence: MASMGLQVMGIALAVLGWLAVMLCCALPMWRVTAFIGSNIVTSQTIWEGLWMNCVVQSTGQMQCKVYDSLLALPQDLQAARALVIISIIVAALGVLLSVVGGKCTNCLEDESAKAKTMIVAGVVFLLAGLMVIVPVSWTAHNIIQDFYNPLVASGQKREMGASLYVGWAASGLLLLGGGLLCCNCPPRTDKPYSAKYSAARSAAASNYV
Protocol: (§3) Briefly, Claudin-6-CHO-K1 cells verse parental CHO-K1 cells were incubated with anti-CLDN6 antibodies for 2 hours at 4° C. Cells were fixed with 2% PFA (Alfa Aesar, cat #: J61899) for 15 minutes at 4° C. and then washed. […] Flow cytometric analyses were performed on a flow cytometry instrument (Intellicyte, IQue plus, Sartorius).

human Claudin-4 [10] = target: T3, human Claudin-4; test: FACS on Claudin-4-CHO-K1 cells, MFI relative to the isotype control
Protocol: as §3

human Claudin-6 [11] = target: T2, human Claudin-6; test: FACS, NEC8 cells (endogenous CLDN6)
Protocol: as §2

human Claudin-6 [12] = target: T2, human Claudin-6; test: FACS dose response, Claudin-6-HEK293 cells
human Claudin-6 [13] = target: T2, human Claudin-6; test: FACS, Claudin-6-CHO-K1 cells, 5 µg/ml
Protocol: as §3

human Claudin-6 [14] = target: T2, human Claudin-6; test: FACS dose response, NEC8 cells (endogenous CLDN6)
human Claudin-6 [15] = target: T2, human Claudin-6; test: FACS dose response, Claudin-6-CHO cells
Protocol: as §3

human Claudin-4 [16] = target: T3, human Claudin-4; test: FACS on MCF7 cells, which endogenously express Claudin-3 and Claudin-4; MFI relative to the isotype control
human Claudin-6 [17] = target: T2, human Claudin-6; test: FACS dose response, Claudin-6-HEK293 cells; remark: listed apart in the source
human Claudin-4 [18] = target: T3, human Claudin-4; test: FACS on MCF7 cells, which endogenously express Claudin-3 and Claudin-4; MFI relative to the isotype control; remark: listed apart in the source
human Claudin-3 [19] = target: T4, human Claudin-3 (human, UniProt O15551 1-220); test: as above
T4 construct: On transfected CHO-K1 cells, or endogenous on MCF7 cells; also called CLDN3
T4 sequence: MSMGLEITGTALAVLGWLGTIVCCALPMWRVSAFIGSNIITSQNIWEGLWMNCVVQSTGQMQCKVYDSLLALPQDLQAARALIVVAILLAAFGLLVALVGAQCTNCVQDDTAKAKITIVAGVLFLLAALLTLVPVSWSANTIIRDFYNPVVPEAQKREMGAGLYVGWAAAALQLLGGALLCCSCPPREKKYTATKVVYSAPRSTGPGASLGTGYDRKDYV

human Claudin-3 [20] = target: T4, human Claudin-3; test: FACS on Claudin-3-CHO-K1 cells, MFI relative to the isotype control
Protocol: as §3

human Claudin-3 [21] = target: T4, human Claudin-3; test: FACS on MCF7 cells, which endogenously express Claudin-3 and Claudin-4, MFI
human Claudin-4 [22] = target: T3, human Claudin-4; test: FACS on Claudin-4-CHO-K1 cells, MFI; remark: listed apart in the source
Protocol: as §3

human Claudin-4 [23] = target: T3, human Claudin-4; test: FACS on Claudin-4-CHO-K1 cells, MFI relative to the isotype control; remark: listed apart in the source
Protocol: as §3

human Claudin-6 [24] = target: T2, human Claudin-6; test: FACS, Claudin-6-HEK293 cells, 5 µg/ml
human Claudin-3 [25] = target: T4, human Claudin-3; test: FACS, Claudin-3-CHO-K1 cells, serial dilution, MFI
Protocol: as §3

human Claudin-6 [26] = target: T2, human Claudin-6; test: FACS dose response, NEC8 cells (endogenous CLDN6); remark: listed apart in the source
Protocol: as §2
(§4) The anti-CLDN6 antibodies were also evaluated for their binding affinity to Claudin-6 overexpressing cell lines by FACS.

human Claudin-6 [27] = target: T2, human Claudin-6; test: FACS dose response, Claudin-6-CHO-K1 cells
Protocol: as §4

human Claudin-6 [28] = target: T2, human Claudin-6; test: FACS, NEC8 cells (endogenous CLDN6); remark: listed apart in the source
Protocol: as §2

human Claudin-6 [29] = target: T2, human Claudin-6; test: FACS dose response, Claudin-6-HEK293 cells; remark: listed apart in the source
Protocol: as §4

human Claudin-3 [30] = target: T4, human Claudin-3; test: FACS, Claudin-3-CHO-K1 cells, serial dilution, MFI; remark: listed apart in the source
Protocol: as §3

human Claudin-4 [31] = target: T3, human Claudin-4; test: FACS, Claudin-4-CHO-K1 cells, serial dilution, MFI
Protocol: as §3

human Claudin-3 [32] = target: T4, human Claudin-3; test: FACS, Claudin-3-CHO-K1 cells, serial dilution, MFI; remark: listed apart in the source
Protocol: as §3

human Claudin-4 [33] = target: T3, human Claudin-4; test: FACS, Claudin-4-CHO-K1 cells, serial dilution, MFI; remark: listed apart in the source
Protocol: as §3

| Binder | EC50 (human Claudin-9 [1]) [nM] | endocytosis-mediated cytotoxicity on OV90 cells, EC50 (human Claudin-6 [3]) [nM] | fold MFI over isotype control (human Claudin-9 [4]) [fold] | endocytosis killing (anti-hFc Fab-MMAF, CellTiter-Glo, 72 h) on NEC8 cells, EC50 (human Claudin-6 [5]) [nM] | fold MFI over isotype control (human Claudin-6 [6]) [fold] | ADCC reporter assay on NEC8 cells, EC50 (human Claudin-6 [7]) [nM] | fold MFI over isotype control (human Claudin-6 [11]) [fold] | EC50 (human Claudin-6 [12]) [nM] | fold MFI over isotype control (human Claudin-6 [13]) [fold] | EC50 (human Claudin-6 [14]) [nM] | EC50 (human Claudin-6 [15]) [nM] | EC50 (human Claudin-6 [17]) [nM] | fold MFI over isotype control (human Claudin-6 [24]) [fold] | EC50 (human Claudin-6 [26]) [nM] | EC50 (human Claudin-6 [27]) [nM] | fold MFI over isotype control (human Claudin-6 [28]) [fold] | EC50 (human Claudin-6 [29]) [nM] | other results |
| --- | --- | --- | --- | --- | --- | --- | --- | --- | --- | --- | --- | --- | --- | --- | --- | --- | --- | --- |
| B1 | 6.72 | 1.08 | 16 | 0.14 | 19 | 0.4 | 27 | 0.55 | 28 | 1.39 | 0.97 | 0.63 |  |  |  |  |  | endocytosis-mediated cytotoxicity (anti-hFc Fab-MMAF, CellTiter-Glo) on NEC8 cells, EC50 mean (St. Dev. 0.11) (human Claudin-6 [2]): 0.2 nM; fold MFI over isotype control (human Claudin-6 [8]): 32 fold; binding result (human Claudin-4 [9]): no binding; fold MFI over isotype control (human Claudin-4 [10]): 1.1 x; fold MFI over isotype control (human Claudin-4 [16]): 0.9 x |
| B2 |  |  |  |  |  |  |  |  |  | 0.74 |  | 0.42 |  |  |  |  |  |  |
| B3 | 1.49 | 2.32 | 53 |  | 17 |  | 25 | 1 | 24 |  | 6.88 |  |  |  |  |  |  | endocytosis-mediated cytotoxicity (anti-hFc Fab-MMAF, CellTiter-Glo) on NEC8 cells, EC50 mean (St. Dev. 0.07) (human Claudin-6 [2]): 0.1 nM; fold MFI over isotype control (human Claudin-4 [18]): 1.1 x; fold MFI over isotype control (human Claudin-3 [19]): 1.1 x; fold MFI over isotype control (human Claudin-3 [20]): 0.8 x; binding result (human Claudin-3 [21]): no binding; binding result (human Claudin-4 [22]): no binding; fold MFI over isotype control (human Claudin-4 [23]): 0.9 x |
| B4 |  |  |  | 0.51 |  | 6.43 |  |  |  |  |  |  | 31 | 3.27 | 4.69 | 20 | 5.17 | binding result (human Claudin-3 [25]): no binding (tested: log 1.5 (about 33 nM)) |
| B5 |  |  |  | 0.41 |  | 9.83 |  |  |  |  |  |  | 23 | 8.34 | 4.79 | 19 | 15.7 | binding result (human Claudin-3 [30]): no binding (tested: log 1.5 (about 33 nM)); binding result (human Claudin-4 [31]): no binding (tested: log 1.5 (about 33 nM)) |
| B6 |  |  |  | 0.26 |  | 3.78 |  |  |  |  |  |  | 24 | 5.92 | 3.99 | 21 | 4.13 | binding result (human Claudin-3 [32]): no binding (tested: log 1.5 (about 33 nM)); binding result (human Claudin-4 [33]): no binding (tested: log 1.5 (about 33 nM)) |
